Data on 1 molecule can be found in patent US20240376224A1 (University of California, published 2024).

For one test, the target named is T1, c-CDCP1-Fc (Cut 2) (human, UniProt Q9H5V8 30-368; Q9H5V8 369-667).
T1 construct: Co-transfection of NTF and CTF-Fc plasmids; not shown: Fc domain
T1 sequence 1: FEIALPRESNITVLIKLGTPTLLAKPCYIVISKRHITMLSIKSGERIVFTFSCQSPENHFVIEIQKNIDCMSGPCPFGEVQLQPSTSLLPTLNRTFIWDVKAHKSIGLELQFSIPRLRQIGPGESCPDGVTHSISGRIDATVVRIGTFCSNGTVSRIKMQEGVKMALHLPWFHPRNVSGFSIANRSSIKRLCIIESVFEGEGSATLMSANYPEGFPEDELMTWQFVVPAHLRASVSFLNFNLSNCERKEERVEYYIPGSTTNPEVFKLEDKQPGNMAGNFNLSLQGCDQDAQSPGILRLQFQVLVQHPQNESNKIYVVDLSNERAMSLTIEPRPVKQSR
T1 sequence 2: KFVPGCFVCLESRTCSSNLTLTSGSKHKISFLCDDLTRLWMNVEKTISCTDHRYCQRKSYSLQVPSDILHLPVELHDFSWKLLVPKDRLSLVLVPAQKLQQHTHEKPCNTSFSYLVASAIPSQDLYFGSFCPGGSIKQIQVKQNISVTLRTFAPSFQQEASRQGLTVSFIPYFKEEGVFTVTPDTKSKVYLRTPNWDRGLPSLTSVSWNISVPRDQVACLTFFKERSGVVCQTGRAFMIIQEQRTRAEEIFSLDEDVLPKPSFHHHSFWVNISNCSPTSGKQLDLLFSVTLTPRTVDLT
As to the kind of experiment: BLI (Octet), table of in vitro binding affinities. The protocol:
BLI experiments were performed using an Octet RED384 instrument (ForteBio). Biotinylated proteins were immobilized on a streptavidin (SA) biosensor and His-tagged proteins were immobilized on a Ni-NTA biosensor. Different concentrations of analyte in PBS pH 7.4+0.05% Tween-20+0.2% BSA (PBSTB) were used as analyte. Affinities (KDS) were calculated from a global fit (1:1) of the data using the Octet RED384 software.
For orientation: Biolayer interferometry detects binding as a change in optical thickness at a sensor tip.

The target in test [1] is T2, soluble CUB1 (NTF) used as competitor (human, UniProt Q9H5V8 30-367, limits assumed).
T2 sequence: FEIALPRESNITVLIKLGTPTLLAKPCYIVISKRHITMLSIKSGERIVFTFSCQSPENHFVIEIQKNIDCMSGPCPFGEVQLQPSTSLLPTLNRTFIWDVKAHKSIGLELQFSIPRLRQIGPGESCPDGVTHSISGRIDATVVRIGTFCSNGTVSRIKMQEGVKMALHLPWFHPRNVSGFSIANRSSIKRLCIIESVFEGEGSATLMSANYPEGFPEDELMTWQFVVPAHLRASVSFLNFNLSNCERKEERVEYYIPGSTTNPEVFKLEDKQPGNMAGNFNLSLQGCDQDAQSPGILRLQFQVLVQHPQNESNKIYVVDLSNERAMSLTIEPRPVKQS
As to the kind of experiment: flow cytometry competition: CUB1-His (NTF) titrated against 100, 50 or 0 nM IgG CL03 on cleaved CDCP1 positive cells. The protocol:
To further evaluate the recognition of cleaved CDCP1 on cancer cells by CL03, a competition assay was performed to evaluate whether soluble CUB1 (NTF) could compete with the binding of CL03 on cleaved CDCP1 positive cells. […] Primary Ab (CL03 IgG) and different concentrations of CUB1 (NTF) were added to cells for 30 minutes at 4° C. Bound Abs were detected with addition of AlexaFluor-488 conjugated Goat anti-human IgG, F(ab′)2 fragment specific (Jackson ImmunoResearch: 1:1000). Cells were washed 3× with PBS+3% BSA and fluorescence was quantified using a CytoFLEX (Beckman Coulter) flow cytometer. All flow cytometry data analysis was performed using FlowJo software and Prism software (GraphPad).
(In flow cytometry, cells or beads pass a laser one at a time.)

Test [2] has as its target T3, mouse c-CDCP1 (recombinant cleaved mouse CDCP1) (mouse, UniProt Q5U462 30-368; Q5U462 369-666, limits assumed).
T3 construct: Mouse antigens made were c-CDCP1-Fc (Cut 1) and (Cut 2); also called mouse cleaved CDCP1; cleaved mCDCP1
T3 sequence 1: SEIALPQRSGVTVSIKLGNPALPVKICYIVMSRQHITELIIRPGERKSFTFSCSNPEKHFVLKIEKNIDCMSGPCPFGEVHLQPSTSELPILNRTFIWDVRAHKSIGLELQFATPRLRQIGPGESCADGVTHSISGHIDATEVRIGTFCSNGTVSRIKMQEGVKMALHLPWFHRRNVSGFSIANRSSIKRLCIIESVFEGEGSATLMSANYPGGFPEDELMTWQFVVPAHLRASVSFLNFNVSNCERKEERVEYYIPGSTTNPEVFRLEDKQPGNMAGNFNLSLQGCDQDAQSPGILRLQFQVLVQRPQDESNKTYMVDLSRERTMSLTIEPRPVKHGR
T3 sequence 2: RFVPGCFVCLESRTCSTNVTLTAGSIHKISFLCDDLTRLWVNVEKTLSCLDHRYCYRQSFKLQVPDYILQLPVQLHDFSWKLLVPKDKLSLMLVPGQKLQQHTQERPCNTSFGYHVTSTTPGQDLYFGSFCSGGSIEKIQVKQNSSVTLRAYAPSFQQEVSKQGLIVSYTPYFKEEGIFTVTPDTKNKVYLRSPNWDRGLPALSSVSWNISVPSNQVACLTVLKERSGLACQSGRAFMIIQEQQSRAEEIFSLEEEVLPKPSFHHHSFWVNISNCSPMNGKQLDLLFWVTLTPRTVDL
Description: BLI (Octet), mouse c-CDCP1-Fc on the sensor, IgG CL03 as analyte.

B1: CL03 IgG (antibody, V domains shown)
VH: EVQLVESGGGLVQPGGSLRLSCAASGFNFSSYSIHWVRQAPGKGLEWVASIYPYSGSTYYADSVKGRFTISADTSKNTAYLQMNSLRAEDTAVYYCARQSHSYYSHTWWVSYGMDYWGQGTLVTVSS
VL: DIQMTQSPSSLSASVGDRVTITCRASQSVSSAVAWYQQKPGKAPKLLIYSASSLYSGVPSRFSGSRSGTDFTLTISSLQPEDFATYYCQQSGQRPITFGQGTKVEIKR
notes: also called IgG CL03
In the test with c-CDCP1-Fc (Cut 2), B1 yielded a Kd of 0.37 nM, a koff of 0.000174 s⁻¹ and a kon of 473000 M⁻¹ s⁻¹. In addition, the binding result in test [1] was “no binding (tested: about 800 nM)”. In test [2], the binding result is reported as “no binding (tested: not printed)”.

As a reminder, the Kd is a measure of binding affinity in units of concentration. As a reminder, the koff is the rate constant with which the complex falls apart. Read a low koff as slow dissociation. As usually defined, the kon is a measure of how fast the partners come together. Low readings indicate slower complex formation, high ones faster complex formation.
